Source: patent US20160002325A1 (VACCINEX, published 2016)

T1: human CXCL13 (human, UniProt O43927 23-109)
T1 construct: Recombinant protein bought from Peprotech (#300-47); In some assays native human CXCL13 from supernatant of IFN-gamma-stimulated THP-1 cells was used; this is said in the assay field; also called recombinant human CXCL13; rhuCXCL13
T1 sequence: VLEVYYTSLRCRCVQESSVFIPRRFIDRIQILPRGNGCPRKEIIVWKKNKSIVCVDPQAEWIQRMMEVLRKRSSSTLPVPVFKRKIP

T2: mouse CXCL13 (mouse, UniProt O55038 22-109)
T2 construct: Recombinant protein bought from Peprotech (#250-24); In some assays native mouse CXCL13 from organ extracts of TNF-alpha transgenic mice was used; this is said in the assay field; also called recombinant mouse CXCL13; rmuCXCL13
T2 sequence: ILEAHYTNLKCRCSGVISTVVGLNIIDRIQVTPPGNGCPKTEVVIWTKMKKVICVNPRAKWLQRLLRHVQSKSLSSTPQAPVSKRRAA

T3: human CXCL13 15-mer peptide YTSLRCRCVQESSVF (human)
T3 peptide: YTSLRCRCVQESSVF

T4: cynomolgus monkey CXCL13 (cynomolgus monkey, UniProt O43927 23-104 (human entry), limits assumed)
T4 construct: Recombinant; also called recombinant cynomolgus monkey CXCL13
T4 chain: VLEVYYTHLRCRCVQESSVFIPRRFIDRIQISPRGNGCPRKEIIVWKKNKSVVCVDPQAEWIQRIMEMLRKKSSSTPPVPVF


How the values were obtained:
human CXCL13 [1] = molecular target: T1, human CXCL13; test: SPR (Biacore), recombinant human CXCL13; printed as Affinity (Biacore), nM
mouse CXCL13 [2] = molecular target: T2, mouse CXCL13; test: SPR (Biacore), recombinant mouse CXCL13; printed as Affinity (Biacore), nM
[3] = molecular target: T3, human CXCL13 15-mer peptide …; test: ProArray Ultra peptide microarray of 15-mer human CXCL13 peptides, fluorescent secondary antibody
Procedure: In this project, the determination of peptide-antibody binding was performed by incubation of serum samples with a ProArray Ultra™ peptide microarray. This peptide array was generated as 15-mer peptides overlapping by 10 amino acids from the human CXCL13 primary sequence. The CXCL13 array contained sixteen unique peptides. […] After several washing steps the ProArray Ultra™ arrays were dried and scanned using a high-resolution fluorescence microarray scanning system.

human CXCL13 [4] = molecular target: T1, human CXCL13; test: SPR (BIACORE), recombinant human CXCL13, methods similar to Example 1; printed as Affinity, nM
Procedure: (§1) Chemokines were immobilized on a C1 chip in Acetate buffer (pH=5) with human CXCL13 at 1 μg/ml, mouse CXCL13 at 0.3 μg/ml, and negative control SDF-1α at 0.5 μg/ml. 3D2 and 3C9 were diluted in HBS-EP buffer by two-fold from 100 nM to 0.78 nM and from 38 nM to […].

mouse CXCL13 [5] = molecular target: T2, mouse CXCL13; test: SPR (BIACORE), recombinant mouse CXCL13, methods similar to Example 1; printed as Affinity, nM
Procedure: as §1

human CXCL13 [6] = molecular target: T1, human CXCL13; test: Specificity ELISA on recombinant human CXCL13 coated at 100 nM, OD 450/570, four-parameter sigmoidal fit
mouse CXCL13 [7] = molecular target: T2, mouse CXCL13; test: Specificity ELISA on recombinant mouse CXCL13 coated at 100 nM, OD 450/570, four-parameter sigmoidal fit
Procedure: For specificity ELISA, recombinant human, cynomolgus monkey, and mouse CXCL13 were each coated at 100 nM. […] The data points for each chemokine represents the mean of triplicate measurements. EC50 values were calculated from four-parameter sigmoidal curve fit (R² for the curves that produced EC50 values were 0.99).

cynomolgus monkey CXCL13 [8] = molecular target: T4, cynomolgus monkey CXCL13; test: Specificity ELISA on recombinant cynomolgus monkey CXCL13 coated at 100 nM, OD 450/570, four-parameter sigmoidal fit
mouse CXCL13 [9] = molecular target: T2, mouse CXCL13; test: Capture Epitope Competition ELISA: native mouse CXCL13 captured with MAb 470; unlabeled competitor inhibits binding of 3.3 nM biotin-3D2; four-parameter fit
Procedure: For mouse ELISA, mouse CXCL13 (1:40 dilution of TNF-Tg organ extract) was captured with 33 nM MAb 470 and detected with 3.3 nM biotin-3D2. Each data point represents an average of duplicate measurements from one of at least three independent experiments. […] Curves shown in FIGS. 17A-B were fitted using four-parameter sigmoidal curve fit (R²=0.99).

human CXCL13 [10] = molecular target: T1, human CXCL13; test: Specificity ELISA on recombinant human CXCL13 coated at 100 nM, OD 450/570, four-parameter sigmoidal fit; remark: listed apart in the source
Procedure: (§2) Each data point represents mean of triplicate measurements. EC50 values were calculated from four-parameter sigmoidal curve fit (R² for the curves that produced EC50 values were 0.99).

mouse CXCL13 [11] = molecular target: T2, mouse CXCL13; test: Specificity ELISA on recombinant mouse CXCL13 coated at 100 nM, OD 450/570, four-parameter sigmoidal fit; remark: listed apart in the source
Procedure: as §2

cynomolgus monkey CXCL13 [12] = molecular target: T4, cynomolgus monkey CXCL13; test: Specificity ELISA on recombinant cynomolgus monkey CXCL13 coated at 100 nM, OD 450/570, four-parameter sigmoidal fit
Procedure: as §2

mouse CXCL13 [13] = molecular target: T2, mouse CXCL13; test: SPR (BIACORE), recombinant chemokine immobilized on C1 chip, antibody in solution; printed as Affinity, nM
Procedure: as §1

human CXCL13 [14] = molecular target: T1, human CXCL13; test: as above
Procedure: as §1

human CXCL13 [15] = molecular target: T1, human CXCL13; test: Specificity ELISA on plate-coated recombinant human CXCL13, OD 450/570, four-parameter sigmoidal fit
Procedure: (§3) Hybridoma clones were screened by ELISA for binding to human and mouse CXCL13 protein. ELISA plates were coated with about 100 nM of human (Peprotech: #300-47) or mouse (Peprotech: #250-24) CXCL13 protein overnight at room temperature (RT). […] The plates were washed and developed with tetramethylbenzidine (TMB) substrate reagents A and B (BD Biosciences: #555214) mixed at equal volumes for 15 minutes in the dark and read at 450/570 wavelengths. Two positive hybridoma clones, labelled “3D2” and “3C9”, both mouse IgG1 antibodies, were selected for further characterization.
(§4) Specificity of the hybridoma-produced mouse anti-human antibodies, 3D2 and 3C9, was assessed by ELISA (as described above) on a panel that included recombinant chemokines (Peprotech: mouse and human CXCL13, human IL-8/CXCL8 (#200-08), human IP-10/CXCL10 (#200-10), human MIG/CXCL9 (#300-26), human SDF-1alpha/CXCL12 (#300-28A) and cynomolgus monkey CXCL13) as well as several non-specific control antigens (recombinant human C35, streptavidin (Thermo: #21122), bovine serum albumin (BSA) (SeraCore: #AP-4510-01)), human serum albumin (HAS) (Sigma: #A8763), insulin (Gibco: #12585-014), and hemoglobin (Sigma: #H7379).

mouse CXCL13 [16] = molecular target: T2, mouse CXCL13; test: Specificity ELISA on plate-coated recombinant mouse CXCL13, OD 450/570, four-parameter sigmoidal fit
Procedure: as §3, §4

cynomolgus monkey CXCL13 [17] = molecular target: T4, cynomolgus monkey CXCL13; test: Specificity ELISA on plate-coated recombinant cynomolgus monkey CXCL13, OD 450/570, four-parameter sigmoidal fit
Procedure: as §3, §4

human CXCL13 [18] = molecular target: T1, human CXCL13; test: Capture Epitope Competition ELISA: recombinant human CXCL13 captured with MAb 801; unlabeled 3D2 inhibits binding of biotin-3C9; percent maximal response, four-parameter fit
Procedure: (§5) Capture Epitope Competition ELISA was used to assess 3D2 binding to native human and mouse CXCL13. In this assay, native human CXCL13 was obtained from supernatants collected from human IFN-gamma-stimulated THP-1 cells. […] The plate was then incubated with biotinylated 3C9 in the presence of various amounts of unlabeled 3D2. […] As evident from FIG. 3A, 3D2 strongly bound to both native and recombinant human CXCL13 producing statistically similar EC50 values.

mouse CXCL13 [19] = molecular target: T2, mouse CXCL13; test: Capture Epitope Competition ELISA: recombinant mouse CXCL13 captured with MAb 470; unlabeled 3D2 inhibits binding of biotin-3D2; percent maximal response, four-parameter fit
Procedure: (§6) Mouse CXCL13-rich organ extracts from TNF-alpha transgenic mice were used as sources of native mouse CXCL13. Mouse CXCL13 (1:40 dilution of TNF-Tg organ extract or 0.5 nM rmuCXCL13) was captured with 33 nM MAb 470 and detected with 3.3 nM biotin-3D2. The chemokine from the extracts (and recombinant mouse CXCL13 which was used as a control) was captured on the ELISA plate by MAb 470. The plate was then incubated with biotinylated 3D2 in the presence of various amounts of unlabeled 3D2.

human CXCL13 [20] = molecular target: T1, human CXCL13; test: Capture Epitope Competition ELISA: native human CXCL13 (THP-1 supernatant) captured with MAb 801; unlabeled 3D2 inhibits binding of biotin-3C9; percent maximal response, four-parameter fit
Procedure: as §5

mouse CXCL13 [21] = molecular target: T2, mouse CXCL13; test: Capture Epitope Competition ELISA: native mouse CXCL13 (TNF-Tg organ extract) captured with MAb 470; unlabeled 3D2 inhibits binding of biotin-3D2; percent maximal response, four-parameter fit
Procedure: as §6

| Binder | Kd (human CXCL13 [1]) [nM] | Kd (mouse CXCL13 [2]) [nM] | Kd (human CXCL13 [4]) [nM] | Kd (mouse CXCL13 [5]) [nM] | EC50 (human CXCL13 [6]) [nM] | EC50 (mouse CXCL13 [7]) [nM] | EC50 (cynomolgus monkey CXCL13 [8]) [nM] | EC50 (mouse CXCL13 [9]) [nM] | EC50 (human CXCL13 [10]) [nM] | EC50 (cynomolgus monkey CXCL13 [12]) [nM] | also measured |
| --- | --- | --- | --- | --- | --- | --- | --- | --- | --- | --- | --- |
| MAb 5261 (antibody, V domains shown, Humanized) VH: QVQLQESGPGLVKPSETLSLTCTVSGFSLSTFGMGVGWIRQPPGKGLEWIAHIWWDDDRRYNPALKSRVTISKDTSKNQFSLKLSSVTAADTAVYYCARIAGYYGSRDWFAYWGQGTTVTVSS VL: DIQMTQSPSSLSASVGDRVTITCRASESVDNMGISFMHWYQQKPGKAPKLLIFRASDLESGVPSRFSGSGSGTDFTLTISSLQPEDFATYYCQQSNKDPWTFGQGTKLEIK | 5.1 | 8.1 | 5.1 | 8.1 | 0.03 | 0.09 | 0.04 | 6 | – | – | binding result [3]: binds |
| MAb 5378 (antibody, V domains shown, also called H5188/L5153) VH: QVQLQESGPGLVKPSETLSLTCTVSGFSLSTFGMGVGWIRQPPGKGLEWIAHIWWDDDRRYNPALKSRVTISKDTSKNQFSLKLSSVTAADTAVYYCARIAGYYGSRDWFAYWGQGTTVTVSS VL: DIQMTQSPSSLSASVGDRVTITCRASESVDNMGISFMHWYQQKPGKAPKLLIFRASDLESGVPSRFSGSGSGTDFTLTISSLQPEDFATYYCQQSNKDPWTFGQGTKLEIK | – | – | 4.5 | 4.2 | – | – | – | – | 0.2 | 0.3 | EC50 (mouse CXCL13 [11]): 3.4 nM |

Now from value to binder, other results behind:

| Kd (human CXCL13 [1]) [nM] | Kd (mouse CXCL13 [2]) [nM] | Kd (human CXCL13 [4]) [nM] | Kd (mouse CXCL13 [5]) [nM] | EC50 (human CXCL13 [6]) [nM] | EC50 (mouse CXCL13 [7]) [nM] | EC50 (cynomolgus monkey CXCL13 [8]) [nM] | EC50 (mouse CXCL13 [9]) [nM] | EC50 (human CXCL13 [10]) [nM] | EC50 (cynomolgus monkey CXCL13 [12]) [nM] | Binder | also measured |
| --- | --- | --- | --- | --- | --- | --- | --- | --- | --- | --- | --- |
| 14.5 | 59.2 | – | – | 0.03 | 2.1 | 0.06 | 24.3 | – | – | MAb 5080 (antibody, human IgG1, V domains shown, also called H2177/L5055) VH: QVQLQESGPGLVKPSETLSLTCTVSGFSLSTFGMGVGWIRQPPGKGLEWIAHIWWDDDRRYNPALKSRVTISKDTSKNQFSLKLSSVTAADTAVYYCARIAGYYGSRDWFAYWGQGTTVTVSS VL: DIQMTQSPSSLSASVGDRVTITCRASESVDNSGISFMHWYQQKPGKAPKLLIFRASDLESGVPSGFSGSGSRTDFTLTISSLQPEDFATYYCQQSNKDPWTFGQGTKLEIK | – |
| 13 | 159 | 13 | 159 | – | – | – | 11.2 | 0.2 | 8.9 | 3D2 (antibody, mouse IgG1, V domains shown, Hybridoma-produced mouse IgG1; also called mouse anti-human CXCL13 antibody 3D2; H1609/L0293) VH: EVQLQESGPGILQPSQTLNLTCSFSGFSLSTFGMGVGWIRQPSGKGLEWLAHIWWDDDRRYNPALKSRLTISKETSKNQVFLKIANVDTADTATYYCTRIAGYYGSRDWFAYWGQGTTVTVSS VL: DIVLTQSPASLAVSLGQRATISCRASESVDNSGISFMHWYQQKPGQPPKLLIFRASDLESGIPARFSGSGSRTDFTLTVNPVETDDVATYFCQQSNKDPWTFGGGTKLEIK | Kd (mouse CXCL13 [13]): 159 nM; Kd (human CXCL13 [14]): 12.9 nM; EC50 (human CXCL13 [15]): 1.1 nM; EC50 (mouse CXCL13 [16]): 0.98 nM; EC50 (cynomolgus monkey CXCL13 [17]): 0.8 nM; EC50 (human CXCL13 [18]): 0.46 nM; EC50 (mouse CXCL13 [19]): 12.5 nM; EC50 (human CXCL13 [20]): 0.13 nM; EC50 (mouse CXCL13 [21]): 11.2 nM |
| 11.4 | – | – | – | 0.07 | – | 0.51 | – | – | – | MAb 1476 (antibody, V domains shown, Chimeric IgG1: 3D2 variable domains (H1609/L0293) on human gamma 1 heavy chain constant and human kappa constant; also called chimeric 3D2) VH: EVQLQESGPGILQPSQTLNLTCSFSGFSLSTFGMGVGWIRQPSGKGLEWLAHIWWDDDRRYNPALKSRLTISKETSKNQVFLKIANVDTADTATYYCTRIAGYYGSRDWFAYWGQGTTVTVSS VL: DIVLTQSPASLAVSLGQRATISCRASESVDNSGISFMHWYQQKPGQPPKLLIFRASDLESGIPARFSGSGSRTDFTLTVNPVETDDVATYFCQQSNKDPWTFGGGTKLEIK | – |
